B1: MAE11 (antibody, V domains shown)
VH: DVQLQESGPGLVKPSQSLSLACSVTGYSITSGYSWNWIRQFPGNKLEWMGSITYDGSSNYNPSLKNRISVTRDTSQNQFFLKLNSATAEDTATYYCARGSHYFGHWHFAVWGAGTTVTVSS
VL: DIVLTQSPASLAVSLGQRATISCKASQSVDYDGDSYMNWYQQKPGQPPILLIYAASYLGSEIPARFSGSGSGTDFTLNIHPVEEEDAATFYCQQSHEDPYTFGAGTKLEIK
B2: MAE13 (antibody, V domains shown)
VH: DVQLQESGPGLVKPSQSLSLTCTVTGYTITSDNAWNWIRQFPGNKLEWMGYINHSGTTSYNPSLKSRISITRDTSKNQFFLQLNSVTTEDTATYYCAWVVAYAMDYWGQGTSVTVSS
VL: DIVMTQSQKFMSTSVGDRVSVTCKASQNVSSNVAWYQQKPGQSPKALIYSASYRYSGVPDRFTGSGSGTDFTLTISNVQSEDLAEYFCQQYYTYPLYTFGGGTKLEIKR
B3: MAE15 (antibody, V domains shown)
VH: DVQHQESEPDLVKPSQSLSLTCTVTGYSITSGYNRHWIRQFPGNKLEWMGYIHYSGSTNYNPSLKRRISITRDTSKNQFFLQLNSVTTEDTATYYCARGSIYYYGSRYRYFDVWGAGTTVTVSS
VL: DIQLTQSPASLAVSLGQRATISCKASQSVDYDGDSYMNWYQQKPGQPPKLLIYAASNLESGIPARFSGSGSGTDFTLNIHPVEEEDAATYYCQQSNEDPFTFGAGT

The target of this test is membrane IgE on U266 B1 cells (human) (UniProt P01854). The experiment in a line: FACS, U266 B1 cells. A general note: In flow cytometry, cells or beads pass a laser one at a time.
Take B1: the EC50 (commonly the midpoint of the concentration-response curve) worked out at 0.15 µg/mL.
Under B2 stands 1 µg/mL.
B3: the EC50 amounted to 6 µg/mL.
